Measured values: the supplement of paper PMC12042874
± gives the uncertainty stated by the source.

Test: amyloid nucleation score (Sup35N fusion, yeast selection) (log enrichment); library NNK1; higher = more nucleation; inactive = no reads after selection
In short: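 The nucleation score is a DiMSum log enrichment of output over input reads, centred on the mode score of non-aggregating sequences. Sequences under 100 input reads were excluded, and reads came from Illumina sequencing of plasmid inserts. Psi-negative yeast expressing Sup35N fused to peptides of 20 random codons were induced with 100 μM copper sulfate for 24 hours and grown 7 days at 30°C on medium lacking adenine and uracil. Random libraries had three technical output replicates.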

Row | Substance | amyloid nucleation score
1 | NCLDGGMFRYIKVYRSRYSS | 0.209 ± 0.2
2 | NCTKSSWYGCYT | -0.287 ± 0.35
3 | NCVTL | inactive
4 | NDGPNSIIYFYMIFI | 4.58 ± 0.12
5 | NDRLLMVRYILHFESNAMTW | 0.794 ± 0.38
6 | NDSACIRRSIGSHSFSSCSV | 0.766 ± 0.84
7 | NDTLGSCLDNSLQSGSWWLR | 0.276 ± 0.39
8 | NDTNI | 0.175 ± 1.1
9 | NDYNWKYGFLRWCVLYEVM | 0.117 ± 0.4
10 | NEDAPFMVTSKVVSGT | 0.176 ± 0.34
11 | NEFEVCG | 0.108 ± 0.25
12 | NFAWYNSTQFITTCRVTYSE | 1.86 ± 0.17
13 | NFGLRRYSNARMGMDCGWLC | -0.011 ± 0.45
14 | NFIRKPFGFIY | -0.282 ± 1.7
15 | NFIVVMCTIMNLCYKAQPNE | inactive
16 | NFLFCFCHYCIWKVCTVAGC | -0.073 ± 0.45
17 | NFMEYYKIRVMCWANR | 0.616 ± 0.29
18 | NFMYTYTVTLRRGYGEVSCA | -0.071 ± 0.6
19 | NFNCLVTDAFYFRGWKCLDR | 4.9 ± 0.12
20 | NFNFFRRCLGSPYNRPEWID | -0.066 ± 0.42
21 | NFPLVSFFTNCSNKE | inactive
22 | NFPVPLRNDLKLAFMQNLNS | -0.531 ± 0.3
23 | NFRGFLVTDPLSSS | -0.842 ± 0.42
24 | NFRNSLRSV | 1.24 ± 0.59
25 | NFRSFYKQF | -0.451 ± 1.4

Row | Substance | amyloid nucleation score
26 | NFYMGETDGACLCASMRDPQ | 2.62 ± 0.14
27 | NGCQSIMR | 0.165 ± 0.62
28 | NGFRTSTSCVILLPFCKGQK | -0.129 ± 0.57
29 | NGGAPSGNSGFKYSCKGWFV | -0.452 ± 0.52
30 | NGKWYLLVRGFLAWNKQRCP | -1.03 ± 2.7
31 | NGLQMDCWPLCWRGGGARNC | 0.582 ± 0.38
32 | NGRIQKLASNTCGLWEDLDT | 0.501 ± 0.54
33 | NGYFGAEDFLIVWIALRKKW | 0.5 ± 0.9
34 | NHFLYLFVRYYTRLAEHVYA | -0.08 ± 0.56
35 | NHLRGKCTWGRYCWSVVIRF | 0.362 ± 0.83
36 | NHMSGIDKGIMRLGEWLGEW | -1 ± 0.83
37 | NHTGYTWMNVR | -0.099 ± 0.26
38 | NHVSHWMLSSGKASRYHTRR | 0.142 ± 0.66
39 | NIGMVRFFLGAN | -0.71 ± 0.61
40 | NIITIETGGRKVGTFMMYSI | inactive
41 | NILFCWMGTMYPLLLSAYGR | -0.793 ± 0.48
42 | NILVAIL | -1.45 ± 1.4
43 | NIPQLVVFKWMLSTC | -0.047 ± 1.1
44 | NIQSDRVHIFNELVRFSRWK | 0.829 ± 0.97
45 | NISVHDNNLFHVWNLMVDSG | 5.83 ± 0.061
46 | NIYNVRLIVSH | -0.018 ± 0.54
47 | NKAFGMIV | -0.103 ± 0.79
48 | NKGKIESMCSSAH | 4.7 ± 0.099
49 | NKLEYPHNNACATCC | 1.09 ± 0.84
50 | NKNTS | -0.45 ± 0.54

Row | Substance | amyloid nucleation score
51 | NKQEQHFF | 0.052 ± 0.4
52 | NKSVFVLFVWINSENNVYCE | 0.443 ± 0.62
53 | NLACGFKSWDFKRMRD | 0.685 ± 0.51
54 | NLEAIRQMQEKIMRRTWLLY | 3.03 ± 0.13
55 | NLEHKCVFVLHMKTLIISQP | 0.664 ± 1.2
56 | NLERKEVLSREGCICANFTR | -0.345 ± 0.45
57 | NLFLIDMNVWRLVVGGRQDW | 4.63 ± 0.073
58 | NLFNYLSFD | -0.675 ± 0.49
59 | NLGIWPLYPYFFWLGQIWGD | 0.022 ± 0.77
60 | NLGTSYAWHDNGLFCIHCVS | 1.34 ± 0.84
61 | NLICNLVDNQFPVWQLLRIW | 2.3 ± 0.17
62 | NLKIQCSS | 0.004 ± 0.39
63 | NLLGDSLWEPLNLVDGSTLW | 0.235 ± 0.3
64 | NLMNWRLYDLTGLAAWDQYS | -0.841 ± 0.98
65 | NLRFRRYTLVSGMQGNKIWH | -0.234 ± 0.48
66 | NLSCAE | -0.288 ± 0.71
67 | NLTCSLMVCRWFPIPVL | 0.171 ± 0.38
68 | NLVALNLSNTFPDDV | 0.04 ± 0.82
69 | NLVFW | 0.562 ± 0.69
70 | NLVVTTWARDIADYISAS | -0.01 ± 0.4
71 | NLVYTAIAPPFASFRK | 0.005 ± 0.65
72 | NLWSGFLRFKFSCGRIDGIL | -0.622 ± 0.41
73 | NMDGSVSCVCNILSFDYGGS | 8.289 ± 0.077
74 | NMDSNAIGGGGNGGVRLQSR | -0.76 ± 0.55
75 | NMGSFELWYYGLKASVGFAN | 0.513 ± 0.4

Row | Substance | amyloid nucleation score
76 | NMKRQRAHPMFS | -0.707 ± 0.45
77 | NMNNGDMSSVVVVIRVFCLI | 5.38 ± 0.093
78 | NMRTNQDKSCGCCQLPVQAG | -0.119 ± 1.2
79 | NMTAYSRCSSRTWYTVVFSG | 1.71 ± 0.15
80 | NMVLRPHVMYAWNEPELGNC | -0.22 ± 0.39
81 | NNANCMCSNTCHVFWANHAR | 6.193 ± 0.061
82 | NNCLWLLGPRFPCVIMLVPA | 2.18 ± 0.14
83 | NNEPGLGEK | -0.598 ± 0.92
84 | NNFFITVHSLLIRSSTHMR | 0.015 ± 0.37
85 | NNGRLYVTIRLMDINLVVHT | 0.616 ± 0.43
86 | NNKCWNIVRLVHRSLTLTRH | inactive
87 | NNLLLSYSSFYMLMFQ | 3.42 ± 0.076
88 | NNLRLKGKKRSYRCSVIDLT | -0.256 ± 0.39
89 | NNMLAWWVSLTSSQT | 0.512 ± 0.39
90 | NNNAMQVDVILMRFWVKVAV | 0.492 ± 0.89
91 | NNPLLIPAYPTRNQKVKLIK | 0.108 ± 0.39
92 | NNTFVIVKFEAKDTFVEGVR | 1.57 ± 0.3
93 | NPGPYRARHSSDSWRGNYNE | -0.366 ± 0.58
94 | NQILRLMCWTFYFRESSKSY | inactive
95 | NQRYHYLAAQWVDSWLVGCS | -0.256 ± 0.6
96 | NQYLPS | -0.126 ± 1.2
97 | NQYMIQGKVSRSNIMCLGMR | -0.067 ± 0.21
98 | NRANSVVGQACRKSVIRNRF | -0.144 ± 0.32
99 | NRISALWSTMLWFAY | -0.008 ± 0.27
100 | NRIVADSESYCTSCLAVCAH | 0.177 ± 0.3

Row | Substance | amyloid nucleation score
101 | NRLNGNLPLNHR | 0.014 ± 0.51
102 | NRLWSIRK | -0.425 ± 0.34
103 | NRMLSSKQAPSQNFQ | 0.814 ± 0.46
104 | NRPHFKGNQCPQDIS | -0.217 ± 0.22
105 | NRRLIIVNFVQSKDTCEWRG | 2.77 ± 0.21
106 | NRVSFYATTNFSISRFGSWG | inactive
107 | NRYFRMCFRLWFDPTWSVRA | 0.681 ± 0.85
108 | NRYSYYFLLI | 3.16 ± 0.1
109 | NSAILITNIECLYNIITLFT | 6.389 ± 0.048
110 | NSAKLIARLWMMWDLATSDW | -0.89 ± 0.46
111 | NSCICLTRD | -1.27 ± 1.7
112 | NSDSIGIRVFDV | 0.242 ± 0.99
113 | NSILFNGTQLD | -0.976 ± 0.35
114 | NSLCRLSGCCGVLRDLPLVM | -0.232 ± 0.33
115 | NSPRPSLLCCPCGKAYLHFR | -0.282 ± 1.2
116 | NSREYDRATGNGGTEGKSVT | -0.45 ± 1.1
117 | NSSTVDFSYTNYVRVLLLIA | -0.745 ± 0.8
118 | NSVIFELISSCVNDSNVAGD | 1.45 ± 0.63
119 | NSVYGTIDYGPHCFVNEGNF | inactive
120 | NSYQSSFSEFAASICFDTAE | -2.5 ± 2.4
121 | NTADTFMNLAILSC | 0.148 ± 0.35
122 | NTALMWVMMIVIWSVVSFTS | -0.8 ± 1.4
123 | NTANIIDTGGDSTPLISRSC | -0.958 ± 0.96
124 | NTHKLSGLI | 0.149 ± 0.41
125 | NTNLVWR | 0.267 ± 0.36

Row | Substance | amyloid nucleation score
126 | NTQFHCDDFQLVHDIQ | 0.214 ± 0.38
127 | NTSEIPCCVIQEWFYCTFYL | 7.503 ± 0.044
128 | NTSSLVMVSCDTPRYTNTEV | -1.04 ± 0.72
129 | NTSWGYFR | -0.426 ± 0.52
130 | NTVQNSMG | inactive
131 | NVAGMSPQSWVVDTSSR | 1.34 ± 0.4
132 | NVDRSCWRRECPDCWVMLNM | 0.664 ± 0.49
133 | NVFILMCITKRFCNWLNISS | -0.773 ± 1.5
134 | NVGLGRWSFCGSMSVK | -0.688 ± 0.58
135 | NVGQPRNVVDSIQ | 0.67 ± 0.23
136 | NVKLFFNIFVGKSKIHTTPW | 6.308 ± 0.058
137 | NVMNVIGGENWVSGFDCMGR | inactive
138 | NVRLHVVYVSPSYACFIWSW | 0.343 ± 1.4
139 | NVSEVCKYYPLFRSD | -0.007 ± 0.23
140 | NVSGNEMISGAFGIDEIDGS | 0.189 ± 0.9
141 | NVTSAR | 0.185 ± 1.1
142 | NVYLMKLDWTIKMWWA | 0.638 ± 0.69
143 | NWGENWRLGMSSIREESGAE | -0.735 ± 2.1
144 | NWICKRVIYEYFSTQIYSSG | -0.133 ± 0.55
145 | NWINNRG | 1.03 ± 0.32
146 | NWLNWLTHLFS | 0.407 ± 0.49
147 | NWLTTQNI | -0.371 ± 0.42
148 | NWMTLRWVLGGLSNGFDGSH | 4.41 ± 0.073
149 | NWSRPSSNLGGGPSSAVREG | 0.764 ± 0.52
150 | NYAYCSLVVEDSVK | 8.284 ± 0.063

Row | Substance | amyloid nucleation score
151 | NYGFAIPFA | 0.323 ± 0.31
152 | NYIEPQG | 0.296 ± 0.97
153 | NYLHFSRRLALWRC | inactive
154 | NYSSINLWPCVMLNFRYL | inactive
155 | NYSVFVTSI | 0.365 ± 0.5
156 | NYVYPRVLYSFQVLLYPSKD | 0.704 ± 0.49
157 | PAATNAWGWRVPDPGSMIPS | -0.3 ± 0.42
158 | PALKYFEAVVH | inactive
159 | PAMAWSSSMSFRGTILLDFA | -1.44 ± 2.7
160 | PAQEA | 0.126 ± 0.45
161 | PARSWNLLLSSYYAVFGCFY | -0.327 ± 0.74
162 | PCRGL | -0.628 ± 2.1
163 | PCSSFVNCKIMFLTLMDVVW | 7.739 ± 0.056
164 | PDFNPMSVVNGCSGSRWLNA | -0.676 ± 0.75
165 | PDIRYAFVNFDYLATIWVNG | -1.86 ± 1.7
166 | PDLTSCDVIVIWGFGRG | -0.118 ± 1
167 | PDRRQSN | inactive
168 | PEARWWERMDKGCMKVFHFK | 0.945 ± 0.44
169 | PECTNDKVY | 0.541 ± 0.52
170 | PETFLPTSRVPEMGKLDTLS | 0.456 ± 0.22
171 | PFLFVEIYDNGGSW | 1.36 ± 0.37
172 | PFLNVEHFVMVDRFIVPDI | 0.559 ± 0.79
173 | PFNQLDFTVAYYLSCAH | -0.482 ± 0.63
